According to paper PMC12217528, “Structural basis of topoisomerase targeting by delafloxacin” (Nature Communications, 2025):

Target: ParE30-ParC55 fusion protein (fused ParE-ParC cleavage core of S. pneumoniae topo IV) (Streptococcus pneumoniae)
Experiment: crystal structure; ParE30-ParC55 fusion protein (4.5 mg/ml) mixed with 18-mer V-site or E-site duplex DNA at 1:1.2 molar ratio, 2 mM delafloxacin, 10 mM MgCl2; sitting-drop vapour diffusion, 50 mM sodium cacodylate, 62.5 mM KCl, 7.5 mM MgCl2, 2.5% Tacsimate, 5.5–7% isopropanol, pH 6.5, 301 K; V18 with PEGylated graphene nucleant 2.0 Å, V18 and E18 without 2.4 Å

**Q.** With “ParE30-ParC55 fusion protein (fused ParE-ParC cleavage core of S. pneumoniae topo IV) (enzyme)” as the substance, how does the stoichiometry N read?
**A.** 2
